In PMC3406945, “A smallest 6 kda metalloprotease, mini-matrilysin, in living world: a revolutionary conserved zinc-dependent proteolytic domain- helix-loop-helix catalytic zinc binding domain (ZBD)” (Journal of Biomedical Science, 2012):
Values joined by “and” are separate entries in the source; they are usually repeats but may differ in a detail not shown here. Equal values may be shown once.

Molecular target: the molecule itself
Test: CM-transferrin zymography; purified and refolded 6 kDa ZBD (heparin and Triton X-100 present) in sample buffer without dithiothreitol at room temperature, run on a 12.5% SDS-PAGE gel with 0.3 mg/ml CM-transferrin embedded; oligomer size read from the active bands

B1: recombinant rat matrilysin zinc-binding domain (ZBD) (domain or fragment, UniProt P50280 212-267, looked up)
chain: LFVATHELGHSLGLGHSSVPSSVMYPTYQGDHSEDFSLTKDDIAGIQKLYGKRNKL
notes: 212-267, said to correspond to human a.a; 188-247; called a 60-residue fragment; Cloned into the Nde1 and BamH1 sites of PET3a; also called 6 kDa ZBD; 6 kDa MMP-7 ZBD
- stoichiometry N: 6 and 8 and 5
